Data: publication PMC2577008, “The Transcriptional Repressor Protein NsrR Senses Nitric Oxide Directly via a [2Fe-2S] Cluster” (PLoS ONE, 2008)

Legend:
[1] = target: the molecule itself; test: AUC; sedimentation equilibrium at 16,000, 18,000 and 20,000 rpm, absorbance at 260 nm; 10 uM monomeric NsrR with 2 uM 30 bp double-stranded oligonucleotide (hmpA2 or hmpA1 binding site); 50 mM Tris pH 8.0 (legend: pH 7.0), 100 mM NaCl, 1 mM dithiothreitol; one-component fit; the mass of the DNA-protein complex is measured
[2Fe-2S] NsrR (holo) [2] = target: T1, [2Fe-2S] NsrR (holo) (Streptomyces coelicolor, UniProt Q9L132 1-148); test: analytical ultracentrifugation (sedimentation equilibrium); [2Fe-2S] cluster; 2 uM DNA, 10 uM NsrR; mass 17.4 to 47.3 kDa, homodimer; EMSA: 10 mM Tris-HCl pH 7.5, 60 mM KCl, on ice 2 min, ~20 ng probe, NsrR diluted to 500 nM in 50 mM Tris pH 7.0 (legend: 50 mM Tris pH 7.0, 100 mM NaCl); AUC: 5; settings: protein: recombinant; tags: none stated (pET21a; reverse primer includes the stop codon); chain copies: 2; blunt
T1 sequence: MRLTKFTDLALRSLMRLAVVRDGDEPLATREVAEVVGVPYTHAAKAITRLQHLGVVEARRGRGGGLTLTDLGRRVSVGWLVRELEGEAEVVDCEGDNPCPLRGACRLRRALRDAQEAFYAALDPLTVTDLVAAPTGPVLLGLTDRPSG

[2Fe-2S] NsrR (holo) [3] = target: T1, [2Fe-2S] NsrR (holo); test: analytical ultracentrifugation (sedimentation equilibrium); [2Fe-2S] cluster; 2 uM DNA, 10 uM NsrR; mass 45.0 kDa with NsrR; EMSA: 10 mM Tris-HCl pH 7.5, 60 mM KCl, on ice 2 min, ~20 ng probe, NsrR diluted to 500 nM in 50 mM Tris pH 7.0 (legend: 50 mM Tris pH 7.0, 100 mM NaCl); AUC: 5; settings: protein: recombinant; tags: none stated (pET21a; reverse primer includes the stop codon); chain copies: 2; blunt
[2Fe-2S] NsrR (holo) [4] = target: T1, [2Fe-2S] NsrR (holo); test: analytical ultracentrifugation (sedimentation equilibrium); [2Fe-2S] cluster; 2 uM DNA, 10 uM NsrR; EMSA: 10 mM Tris-HCl pH 7.5, 60 mM KCl, on ice 2 min, ~20 ng probe, NsrR diluted to 500 nM in 50 mM Tris pH 7.0 (legend: 50 mM Tris pH 7.0, 100 mM NaCl); AUC: 5; settings: protein: recombinant; tags: none stated (pET21a; reverse primer includes the stop codon); chain copies: 2; blunt

B1: NsrR from Streptomyces coelicolor ([2Fe-2S] NsrR) (natural protein, UniProt Q9L132 1-148, looked up)
chain: T1 sequence
notes: NsrR (SCO7427), Rrf2 family transcriptional repressor of Streptomyces coelicolor; nsrR gene amplified from genomic DNA with primers from the start codon (CATATG...) to the stop codon (TCA... on the reverse primer); calculated monomer mass 15.9 kDa; Carries a [2Fe-2S] cluster as purified (on average 28% cluster incorporation); also called SCO7427; holo [2Fe-2S]; NsrR
In the case of B1, the “stoichiometry N” value [1] is reported as 2.

B2: hmpA2 30 bp oligonucleotide (dsDNA)
DNA 1: GGAAAACAAGCATCTGAGATCCCAGTTCGG
DNA 2: CCGAACTGGGATCTCAGATGCTTGTTTTCC
B2: binds ([2Fe-2S] NsrR (holo) [2]).

B3: hmpA1 30 bp oligonucleotide (dsDNA)
DNA 1: CTAAAACACGAATATCATCTACCAATTAAG
DNA 2: CTTAATTGGTAGATGATATTCGTGTTTTAG
B3: binds ([2Fe-2S] NsrR (holo) [3]).

B4: Control oligonucleotide (nsrR coding sequence) (dsDNA)
DNA 1: CCGCCTGCAGGCCCTGGGTGTG
DNA 2: CACACCCAGGGCCTGCAGGCGG
B4: no binding ([2Fe-2S] NsrR (holo) [4]).
